Test results taken from PMC5674887.

How the values were obtained:
[1] = target: cNup153 (cysteine-tagged FG domain of human Nup153) (human) (UniProt P49790); assay: SPR
[2] = target: cNup214 (cysteine-tagged FG domain of human Nup214) (human) (UniProt P35658); assay: SPR
[3] = target: cNup62 (cysteine-tagged FG domain of human Nup62) (human) (UniProt P37198); assay: SPR
[4] = target: cNup98 (cysteine-tagged FG domain of human Nup98) (human) (UniProt P52948); assay: SPR
karyopherinβ1 (human) = karyopherinβ1 (human) (UniProt Q14974); assay: ITC
karyopherinβ1 (human), sequence (Q14974 whole entry): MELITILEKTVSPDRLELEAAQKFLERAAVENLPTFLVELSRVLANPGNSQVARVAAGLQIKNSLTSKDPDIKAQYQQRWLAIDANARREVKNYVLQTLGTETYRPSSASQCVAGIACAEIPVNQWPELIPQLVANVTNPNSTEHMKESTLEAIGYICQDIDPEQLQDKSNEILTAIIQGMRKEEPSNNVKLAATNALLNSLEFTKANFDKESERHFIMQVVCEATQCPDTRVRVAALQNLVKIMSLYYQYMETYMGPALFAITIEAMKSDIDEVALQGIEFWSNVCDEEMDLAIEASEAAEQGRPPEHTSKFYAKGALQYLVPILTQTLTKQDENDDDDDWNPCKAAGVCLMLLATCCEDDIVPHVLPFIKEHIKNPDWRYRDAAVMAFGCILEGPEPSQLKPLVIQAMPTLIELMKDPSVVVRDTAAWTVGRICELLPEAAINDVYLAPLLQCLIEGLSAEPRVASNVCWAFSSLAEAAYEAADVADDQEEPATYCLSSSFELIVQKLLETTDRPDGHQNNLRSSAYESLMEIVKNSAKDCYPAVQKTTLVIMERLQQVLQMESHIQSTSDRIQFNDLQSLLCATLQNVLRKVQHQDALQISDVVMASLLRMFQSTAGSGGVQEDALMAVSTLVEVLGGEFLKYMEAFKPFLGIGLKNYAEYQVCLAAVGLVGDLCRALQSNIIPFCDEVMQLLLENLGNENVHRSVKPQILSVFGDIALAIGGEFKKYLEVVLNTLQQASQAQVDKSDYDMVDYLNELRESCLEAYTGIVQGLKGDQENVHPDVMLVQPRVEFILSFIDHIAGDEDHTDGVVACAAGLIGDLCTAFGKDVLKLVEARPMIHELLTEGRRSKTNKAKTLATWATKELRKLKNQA

cNup153 (cysteine-tagged FG domain of human Nup153) (human), sequence (P49790 whole entry, the tested form may be a part): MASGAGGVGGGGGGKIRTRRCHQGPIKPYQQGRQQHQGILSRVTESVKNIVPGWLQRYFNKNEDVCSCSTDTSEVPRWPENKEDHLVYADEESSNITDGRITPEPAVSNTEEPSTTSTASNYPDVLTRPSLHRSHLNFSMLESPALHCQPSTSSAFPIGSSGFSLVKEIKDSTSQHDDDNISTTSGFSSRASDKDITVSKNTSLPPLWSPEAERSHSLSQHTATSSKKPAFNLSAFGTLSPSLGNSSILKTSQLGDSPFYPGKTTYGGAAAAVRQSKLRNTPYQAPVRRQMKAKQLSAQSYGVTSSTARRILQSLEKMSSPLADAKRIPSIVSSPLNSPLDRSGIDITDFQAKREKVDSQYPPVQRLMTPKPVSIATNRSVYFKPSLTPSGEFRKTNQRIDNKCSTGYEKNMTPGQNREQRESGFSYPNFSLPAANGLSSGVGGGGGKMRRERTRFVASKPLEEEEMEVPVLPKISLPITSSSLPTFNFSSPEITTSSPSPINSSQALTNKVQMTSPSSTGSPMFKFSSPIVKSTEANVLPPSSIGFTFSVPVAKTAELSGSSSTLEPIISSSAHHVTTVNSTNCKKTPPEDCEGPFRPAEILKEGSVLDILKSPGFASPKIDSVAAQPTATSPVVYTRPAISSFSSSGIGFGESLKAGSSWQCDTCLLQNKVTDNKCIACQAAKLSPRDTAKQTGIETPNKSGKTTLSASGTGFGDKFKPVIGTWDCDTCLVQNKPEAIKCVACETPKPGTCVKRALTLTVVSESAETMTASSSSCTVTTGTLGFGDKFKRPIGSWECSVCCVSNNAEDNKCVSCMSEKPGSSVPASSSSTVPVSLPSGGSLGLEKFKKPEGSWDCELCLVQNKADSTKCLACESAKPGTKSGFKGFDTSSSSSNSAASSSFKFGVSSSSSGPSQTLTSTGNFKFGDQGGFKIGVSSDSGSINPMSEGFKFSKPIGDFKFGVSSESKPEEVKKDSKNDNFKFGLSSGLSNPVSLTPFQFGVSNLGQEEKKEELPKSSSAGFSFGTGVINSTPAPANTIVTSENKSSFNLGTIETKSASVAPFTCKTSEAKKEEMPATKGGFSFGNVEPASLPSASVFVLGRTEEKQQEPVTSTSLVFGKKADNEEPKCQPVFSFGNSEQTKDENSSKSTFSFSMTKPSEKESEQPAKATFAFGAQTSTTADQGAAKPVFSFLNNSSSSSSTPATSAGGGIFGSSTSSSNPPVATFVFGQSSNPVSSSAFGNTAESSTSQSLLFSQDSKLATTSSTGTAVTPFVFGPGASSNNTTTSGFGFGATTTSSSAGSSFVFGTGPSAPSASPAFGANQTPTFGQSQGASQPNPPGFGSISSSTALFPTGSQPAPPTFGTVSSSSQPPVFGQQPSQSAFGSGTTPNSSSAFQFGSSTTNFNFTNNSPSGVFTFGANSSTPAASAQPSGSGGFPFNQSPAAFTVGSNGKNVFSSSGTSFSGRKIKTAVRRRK
cNup62 (cysteine-tagged FG domain of human Nup62) (human), sequence (P37198 whole entry, the tested form may be a part): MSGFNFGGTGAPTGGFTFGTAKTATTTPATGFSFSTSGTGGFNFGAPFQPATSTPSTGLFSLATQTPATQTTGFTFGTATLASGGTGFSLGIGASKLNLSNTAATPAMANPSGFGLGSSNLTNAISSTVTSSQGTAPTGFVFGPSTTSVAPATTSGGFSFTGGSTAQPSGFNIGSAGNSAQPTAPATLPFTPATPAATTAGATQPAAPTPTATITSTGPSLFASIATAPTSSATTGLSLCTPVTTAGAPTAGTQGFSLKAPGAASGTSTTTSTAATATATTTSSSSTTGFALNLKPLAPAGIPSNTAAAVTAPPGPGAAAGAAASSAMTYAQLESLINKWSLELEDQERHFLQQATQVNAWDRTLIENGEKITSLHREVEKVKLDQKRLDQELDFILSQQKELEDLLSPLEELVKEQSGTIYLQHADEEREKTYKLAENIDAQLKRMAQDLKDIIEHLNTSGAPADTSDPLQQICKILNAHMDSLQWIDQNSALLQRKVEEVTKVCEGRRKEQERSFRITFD
cNup98 (cysteine-tagged FG domain of human Nup98) (human), sequence (P52948 whole entry, the tested form may be a part): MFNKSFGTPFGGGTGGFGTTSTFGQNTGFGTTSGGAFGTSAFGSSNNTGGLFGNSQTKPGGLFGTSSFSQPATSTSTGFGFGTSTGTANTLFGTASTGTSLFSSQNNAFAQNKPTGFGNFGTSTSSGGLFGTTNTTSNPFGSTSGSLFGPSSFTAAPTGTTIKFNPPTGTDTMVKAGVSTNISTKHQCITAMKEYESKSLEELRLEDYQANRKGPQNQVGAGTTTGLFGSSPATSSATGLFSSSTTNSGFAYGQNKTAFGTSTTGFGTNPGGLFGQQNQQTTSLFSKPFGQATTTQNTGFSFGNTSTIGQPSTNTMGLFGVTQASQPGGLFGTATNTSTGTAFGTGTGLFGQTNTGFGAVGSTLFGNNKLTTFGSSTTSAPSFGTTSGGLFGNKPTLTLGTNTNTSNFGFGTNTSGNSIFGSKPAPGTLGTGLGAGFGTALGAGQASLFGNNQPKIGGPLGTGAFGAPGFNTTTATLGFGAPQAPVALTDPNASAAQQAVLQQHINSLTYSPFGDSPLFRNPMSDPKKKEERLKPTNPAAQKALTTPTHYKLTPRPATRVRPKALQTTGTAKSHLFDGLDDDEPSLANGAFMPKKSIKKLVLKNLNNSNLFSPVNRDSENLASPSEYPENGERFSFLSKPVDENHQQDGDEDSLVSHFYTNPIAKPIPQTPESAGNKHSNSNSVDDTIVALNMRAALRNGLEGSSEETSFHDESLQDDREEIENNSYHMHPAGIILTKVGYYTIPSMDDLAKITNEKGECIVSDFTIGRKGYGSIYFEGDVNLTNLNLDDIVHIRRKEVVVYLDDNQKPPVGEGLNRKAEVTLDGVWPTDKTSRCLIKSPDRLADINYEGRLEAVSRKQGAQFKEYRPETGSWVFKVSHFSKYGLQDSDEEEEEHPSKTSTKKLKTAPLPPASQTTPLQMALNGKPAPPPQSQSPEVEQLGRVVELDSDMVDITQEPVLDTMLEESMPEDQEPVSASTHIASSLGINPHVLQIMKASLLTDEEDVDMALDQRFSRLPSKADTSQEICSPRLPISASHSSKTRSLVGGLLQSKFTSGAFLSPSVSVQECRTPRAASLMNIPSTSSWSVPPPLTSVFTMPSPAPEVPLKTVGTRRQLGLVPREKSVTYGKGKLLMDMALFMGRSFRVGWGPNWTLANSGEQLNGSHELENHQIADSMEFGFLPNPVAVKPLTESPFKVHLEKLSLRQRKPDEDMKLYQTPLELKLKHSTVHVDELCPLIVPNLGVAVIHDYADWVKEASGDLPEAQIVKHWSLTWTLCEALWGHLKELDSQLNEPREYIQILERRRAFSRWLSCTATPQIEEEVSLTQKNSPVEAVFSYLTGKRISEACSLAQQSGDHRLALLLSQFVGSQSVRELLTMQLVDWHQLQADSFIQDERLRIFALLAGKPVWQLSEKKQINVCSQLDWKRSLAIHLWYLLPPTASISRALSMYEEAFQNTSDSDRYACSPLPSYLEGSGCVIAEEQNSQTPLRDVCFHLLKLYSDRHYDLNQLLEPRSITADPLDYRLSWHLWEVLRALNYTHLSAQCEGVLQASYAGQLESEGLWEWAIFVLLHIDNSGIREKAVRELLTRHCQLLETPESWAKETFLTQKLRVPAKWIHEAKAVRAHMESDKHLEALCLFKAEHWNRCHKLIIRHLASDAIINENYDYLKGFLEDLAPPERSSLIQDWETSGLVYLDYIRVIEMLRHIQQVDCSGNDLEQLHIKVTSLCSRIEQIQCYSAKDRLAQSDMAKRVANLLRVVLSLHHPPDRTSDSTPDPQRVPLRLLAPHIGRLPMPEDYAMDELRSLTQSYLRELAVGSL

fold higher affinity than Kapβ1 and RanGTP·Kapβ1 (strong binding phase) [1] [fold] | fold higher affinity than Kapβ1 and RanGTP·Kapβ1 (strong binding phase) [2] [fold] | fold higher affinity than Kapβ1 and RanGTP·Kapβ1 (strong binding phase) [3] [fold] | fold higher affinity than Kapβ1 and RanGTP·Kapβ1 (strong binding phase) [4] [fold] | Kd (karyopherinβ1 (human)) [nM] | Kd [1] [nM] | Substance
10 | 10 | 10 | 10 | – | – | Kapα·Kapβ1 (from UniProt P52292;Q14974) (complex)
– | – | – | – | 35 | – | RanGTP (from UniProt P62826 1-216) (natural protein)
– | – | – | – | 210 | 1300 | karyopherinα (from UniProt P52292 1-529) (natural protein)
